We go through eight molecules from patent publication US20190282704A1.

Test [1] deals with feline IL-31 15H05 mutant (Feline_IL31_15H05 mutant) (feline). Put plainly: indirect ELISA, coated IL-31.
Test [2] addresses wildtype feline IL-31 (Feline_IL31_wildtype) (feline). Briefly: indirect ELISA, coated IL-31. Background: An ELISA detects its analyte on a solid surface through an enzyme-linked reagent.
Test [3] concerns the target canine IL-31 (Canine_IL31) (canine).
Test [4] has as its target wildtype feline IL-31 (Feline_IL31_wildtype) (feline).
Test [5] has as its target canine IL-31 (Canine_IL31) (canine). Put plainly: SPR (Biacore), immobilised IL-31, 1:1 fit. On the technique in general: SPR reads the build-up and loss of mass on a sensor chip optically.
Test [6] deals with wildtype feline IL-31 (Feline_IL31_wildtype) (feline). Briefly: SPR (Biacore), immobilised IL-31, 1:1 fit.
Test [7] shares this target. Put plainly: cell-based or functional assay.
The target of test [8] is canine IL-31 (Canine_IL31) (canine). Briefly: cell-based or functional assay.
Sequence of canine IL-31 (Canine_IL31) (canine) (chain, as listed by the source limits assumed, form in doubt): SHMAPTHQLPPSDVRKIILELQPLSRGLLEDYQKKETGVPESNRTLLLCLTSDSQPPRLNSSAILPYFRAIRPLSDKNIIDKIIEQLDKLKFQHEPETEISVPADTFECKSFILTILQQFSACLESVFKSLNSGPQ

Sequence of wildtype feline IL-31 (Feline_IL31_wildtype) (feline) (chain, as listed by the source limits assumed, form in doubt): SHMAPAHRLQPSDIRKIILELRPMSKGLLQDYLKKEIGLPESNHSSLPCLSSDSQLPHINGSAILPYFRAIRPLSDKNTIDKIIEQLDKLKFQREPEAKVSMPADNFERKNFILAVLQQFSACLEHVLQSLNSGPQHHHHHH
Sequence of feline IL-31 15H05 mutant (Feline_IL31_15H05 mutant) (feline) (chain, as listed by the source mutant limits assumed, form in doubt): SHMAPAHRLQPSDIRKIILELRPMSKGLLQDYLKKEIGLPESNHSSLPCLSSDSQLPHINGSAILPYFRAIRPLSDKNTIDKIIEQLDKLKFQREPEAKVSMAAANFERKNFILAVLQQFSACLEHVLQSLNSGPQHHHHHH

B1: ZIL159 (antibody, V domains shown)
VH: EVQLVESGGDLVKPAGSLRLSCVASGFTFSSYVMTWVRQAPGKGLQWVAGINSEGSRTAYADAVKGRFTISRDNAKNTLYLQIDSLRAEDTAIYYCATGDIVATGTSYWGQGTLVTVSS
VL: SNVLTQPPSVSVSLGQTATISCSGETLNRFYTQWFQQKAGQAPVLVIYKDTERPSGIPDRFSGSSSGNIHTLTISGARAEDEAAYYCKSAVSIDVGVFGGGTHLTVFR
In the case of B1, the Binding (ELISA OD) amounted to 1.31 OD in test [1] and 1.6 OD in test [2].

B2: mouse anti IL-31 antibody 15H05 (antibody, V domains shown)
VH: QVQLQQSAAELARPGASVKMSCKTSGYTFTSYTIHWIKQRPGQGLEWIGNINPTSGYTENNQRFKDKTTLTVDRSSNTAYLQLHSLTSEDSAVYFCARWGFKYDGEWSFDVWGAGTTVTVSS
VL: DIQMNQSPSSLSASLGDTITVTCRASQGISIWLSWYQQKPGNIPKVLINKASNLHIGVPPRFSGSGSGTHFTLTITSLQPEDIATYYCLQSQTYPLTFGGGTKLEIN
A word on the Kd: it is the constant that tells how readily two partners part at equilibrium. A lower Kd goes with higher affinity. The koff is the first-order rate constant of dissociation. Lower therefore signals a long-lived complex. One may read the kon as the second-order rate constant of association. The low end stands for slow association, the high end for fast association. As to B2, in test [3], the IC50, inhibition of canine IL-31-induced STAT3 phosphorylation, canine DH82 cells worked out at 11.2 µg/mL and the IC50, inhibition of canine IL-31-induced STAT3 phosphorylation, feline FCWF4 cells amounted to 25.7 µg/mL. Moreover, in test [4], the IC50, inhibition of feline IL-31-induced STAT3 phosphorylation, canine DH82 cells is 2.7 µg/mL and the IC50, inhibition of feline IL-31-induced STAT3 phosphorylation, feline FCWF4 cells was 4.26 µg/mL. Further, in test [5], the Kd came to 0.00487 nM, the koff stood at 6.56e-07 s⁻¹ and the kon was found to be 135000 M⁻¹ s⁻¹. In test [6], the Kd is 0.348 nM, the koff is 1.69e-05 s⁻¹ and the kon was determined as 48400 M⁻¹ s⁻¹. The same molecule yielded a Binding (ELISA OD) in test [1] of 0.05 OD. The molecule further returned a Binding (ELISA OD) in test [2] of 1.94 OD.

B3: mouse anti IL-31 antibody 11E12 (antibody, V domains shown)
VH: QVQLQQSGAELVKPGASVKLSCKASGYTFKYYDINWVRQRPEQGLEWIGWIFPGDGGTKYNETFKGKATLTTDKSSSTAYMQLSRLTSEDSAVYFCARGGTSVIRDAMDYWGQGTSVTVSS
VL: DIVLTQSPASLAVSLGQRATISCRASESVDNYGISFMHWYQQKPGQPPKLLIYRASNLESGIPARFSGSGSRTDFTLTINPVETDDVATYYCQQSNKDPLTFGAGTKLELK
As to B3, in test [4], the IC50, inhibition of feline IL-31-induced STAT3 phosphorylation, canine DH82 cells was 2.47 µg/mL and the IC50, inhibition of feline IL-31-induced STAT3 phosphorylation, feline FCWF4 cells was found to be 2.01 µg/mL. In test [5], this molecule had a Kd of 0.000763 nM, a koff of 4.8e-07 s⁻¹ and a kon of 629000 M⁻¹ s⁻¹. In test [6], the Kd amounted to 0.738 nM, the koff is 0.000123 s⁻¹ and the kon came to 167000 M⁻¹ s⁻¹. In test [1], this molecule showed a Binding (ELISA OD) of 1.33 OD. This molecule showed a Binding (ELISA OD) in test [2] of 1.15 OD.

B4: ZIL171 (antibody, V domains shown)
VH: EVQLVESGGDLVKPAGSLRLSCVASGFTFRTYVMNWVRQAPGKGLQWVASINGGGSSPTYADAVRGRFTVSRDNAQNSLFLQMNSLRAEDTAIYFCVVSMVGPFDYWGHGTLVTVSS
VL: SSVLTQPPSVSVSLGQTATISCSGKSLSYYYAQWFQQKAGQAPVLVIYKDTERPSGIPDRFSGSSSGNTHTLTISGARAEDEADYYCESAVSSDTIVFGGGTHLTVLR
As to B4, the Binding (ELISA OD) in test [1] worked out at 0.93 OD; in test [2], 1.42 OD.

B5: Feline 11E12 1.1 (antibody, V domains shown)
VH: QVLLVQSGAEVKKPGASVKIFCKASGYSFTYYDINWLRQAPEQGLEWMGWIFPGDGGTKYNETFKGRLTLTADTSTNTVYMELSSLRSADTAMYYCARGGTSVIRDAMDYWGQGALVTVSS
VL: EIQMTQSPSSLSASPGDRVTITCRASESVDNYGISFMHWYQQKPGKVPKLLIYRASNLESGVPSRFSGSGSGTDFTLTISSLEPEDAATYYCQQSNKDPLTFGQGT
Turning to B5, the potency against feline IL-31 in the feline FCWF assay, against the mouse version in test [7] was 2 fold. In test [5], this molecule gave a Kd of 0.764 nM, a koff of 0.000141 s⁻¹ and a kon of 185000 M⁻¹ s⁻¹. Moreover, in test [6], the equilibrium dissociation constant (Kd) was 22.2 nM, the koff was found to be 0.000444 s⁻¹ and the kon is 20000 M⁻¹ s⁻¹.

B6: 15H05 mouse: canine chimera (antibody)
heavy: QVQLQQSAAELARPGASVKMSCKTSGYTFTSYTIHWIKQRPGQGLEWIGNINPTSGYTENNQRFKDKTTLTVDRSSNTAYLQLHSLTSEDSAVYFCARWGFKYDGEWSFDVWGAGTTVTVSSASTTAPSVFPLAPSCGSTSGSTVALACLVSGYFPEPVTVSWNSGSLTSGVHTFPSVLQSSGLYSLSSMVTVPSSRWPSETFTCNVAHPASKTKVDKPVPKRENGRVPRPPDCPKCPAPEMLGGPSVFIFPPKPKDTLLIARTPEVTCVVVDLDPEDPEVQISWFVDGKQMQTAKTQPREEQFNGTYRVVSVLPIGHQDWLKGKQFTCKVNNKALPSPIERTISKARGQAHQPSVYVLPPSREELSKNTVSLTCLIKDFFPPDIDVEWQSNGQQEPESKYRTTPPQLDEDGSYFLYSKLSVDKSRWQRGDTFICAVMHEALHNHYTQESLSHSPGK
light: DIQMNQSPSSLSASLGDTITVTCRASQGISIWLSWYQQKPGNIPKVLINKASNLHIGVPPRFSGSGSGTHFTLTITSLQPEDIATYYCLQSQTYPLTFGGGTKLEINRNDAQPAVYLFQPSPDQLHTGSASVVCLLNSFYPKDINVKWKVDGVIQDTGIQESVTEQDKDSTYSLSSTLTMSSTEYLSHELYSCEITHKSLPSTLIKSFQRSEC
In turn, B6 displayed an IC50 against canine IL-31 (pSTAT3; cell type not clear) in test [8] of 12.5 µg/ml. This molecule yielded an IC50, feline IL-31 signaling on the canine DH82 cell line (pSTAT3) in test [7] of 0.71 µg/ml. In addition, the IC50, inhibition of canine IL-31-induced STAT3 phosphorylation, canine DH82 cells in test [3] is 12.7 µg/mL. In test [4], this molecule had an IC50, inhibition of feline IL-31-induced STAT3 phosphorylation, feline FCWF4 cells of 3.11 µg/mL.

B7: mouse: feline 15H05 chimera (antibody)
heavy: QVQLQQSAAELARPGASVKMSCKTSGYTFTSYTIHWIKQRPGQGLEWIGNINPTSGYTENNQRFKDKTTLTVDRSSNTAYLQLHSLTSEDSAVYFCARWGFKYDGEWSFDVWGAGTTVTVSSASTTAPSVFPLAPSCGTTSGATVALACLVLGYFPEPVTVSWNSGALTSGVHTFPAVLQASGLYSLSSMVTVPSSRWLSDTFTCNVAHPPSNTKVDKTVRKTDHPPGPKPCDCPKCPPPEAAGAPSIFIFPPKPKDTLSISRTPEVTCLVVDLGPDDSDVQITWFVDNTQVYTAKTSPREEQFNSTYRVVSVLPILHQDWLKGKEFKCKVNSKSLPSPIERTISKAKGQPHEPQVYVLPPAQEELSRNKVSVTCLIKSFHPPDIAVEWEITGQPEPENNYRTTPPQLDSDGTYFVYSKLSVDRSHWQRGNTYTCSVSHEALHSHHTQKSLTQSPGK
light: DIQMNQSPSSLSASLGDTITVTCRASQGISIWLSWYQQKPGNIPKVLINKASNLHIGVPPRFSGSGSGTHFTLTITSLQPEDIATYYCLQSQTYPLTFGGGTKLEINRSDAQPSVFLFQPSLDELHTGSASIVCILNDFYPKEVNVKWKVDGVVQNKGIQESTTEQNSKDSTYSLSSTLTMSSTEYQSHEKFSCEVTHKSLASTLVKSFQRSECQRE
In test [8], B7 came in with an IC50 against canine IL-31 (pSTAT3; cell type not clear) of 28.6 µg/ml. The same molecule displayed an IC50 against feline IL-31 induced pSTAT3 signaling in feline FCWF4 cells, against mouse: feline 11E12 chimera in test [7] of 2 fold. In addition, in test [4], the IC50, inhibition of feline IL-31-induced STAT3 phosphorylation, canine DH82 cells was determined as 5.59 µg/mL and the IC50, inhibition of feline IL-31-induced STAT3 phosphorylation, feline FCWF4 cells came out at 3.25 µg/mL. In test [5], this molecule displayed a Kd of 0.0129 nM, a koff of 1.62e-07 s⁻¹ and a kon of 12600 M⁻¹ s⁻¹.

B8: ZIL154 (antibody, V domains shown)
VH: EVHLVESGGDLVKPWGSLRLSCVASGFTFSDRGMSWVRQSPGKGLQWVAYIRYDGSRTDYADAVEGRFTISRDNAKNTLYLQMNSLRAEDTAVYYCARWDGSSFDYWGQGTLVTVSS
VL: DIVVTQTPLSLSVSPGETASFSCKASQSLLHSDGNTYLDWFRQKPGQSPQRLIYKVSNRDPGVPDRFSGSGSGTDFTLRISGVEADDAGLYYCMQAIHFPLTFGAGTKVELKR
For the molecule B8, the Binding (ELISA OD) in test [1] amounted to 1.38 OD; in test [2], 1.62 OD.
